The target in data set [1] is human recombinant (hr) ACE2 (human) (UniProt Q9BYF1). The data set is described as follows: cell-based or functional assay.
The test system of data set [2] is T1, 7-methoxycoumarin-Tyr-Val-Ala-Pro-(2,4-dinitrophenyl)Lys.
T1 sequence: YVAPK

Sequence of human recombinant (hr) ACE2 (human) (Q9BYF1 18-740 limits assumed): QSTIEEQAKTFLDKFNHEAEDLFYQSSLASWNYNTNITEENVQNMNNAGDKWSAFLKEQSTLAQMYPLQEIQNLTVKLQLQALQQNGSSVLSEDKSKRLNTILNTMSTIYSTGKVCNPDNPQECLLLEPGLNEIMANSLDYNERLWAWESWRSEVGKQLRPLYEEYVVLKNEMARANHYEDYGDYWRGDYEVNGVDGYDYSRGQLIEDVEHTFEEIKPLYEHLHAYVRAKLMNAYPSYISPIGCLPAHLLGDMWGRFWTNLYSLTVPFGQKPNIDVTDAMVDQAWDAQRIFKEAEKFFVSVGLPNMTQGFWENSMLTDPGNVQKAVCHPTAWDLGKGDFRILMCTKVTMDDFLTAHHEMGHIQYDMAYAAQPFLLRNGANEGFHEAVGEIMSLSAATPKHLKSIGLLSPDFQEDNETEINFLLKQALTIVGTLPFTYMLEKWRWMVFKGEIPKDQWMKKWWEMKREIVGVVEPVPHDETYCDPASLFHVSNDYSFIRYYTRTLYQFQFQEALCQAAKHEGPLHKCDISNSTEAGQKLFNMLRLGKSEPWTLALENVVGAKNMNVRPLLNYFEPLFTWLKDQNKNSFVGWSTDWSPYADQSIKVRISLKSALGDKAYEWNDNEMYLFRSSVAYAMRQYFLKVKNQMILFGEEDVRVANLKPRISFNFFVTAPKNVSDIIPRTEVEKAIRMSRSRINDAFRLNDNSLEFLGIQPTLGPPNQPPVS

Turning to DX600 (peptide), in data set [1], the quenching of the fluorescence signal from cleavage of 7-Mca-YVADAPK(Dnp) by hrACE2 (enzyme inhibition) is 100 nmol/L.

As to human recombinant (hr) ACE2, the “fluorescence from cleavage of the substrate, hACE2 spiked into kidney extract of an ACE2-knockout mouse” value in data set [2] is on record as “the fluorescence signal was recovered in a dose dependent manner, with a linear relationship (r=0.990, p<0.001) in the range of 0.4 to 50 ng ACE2 protein/well”.
